This is an account of results in article PMC7986808.

The target in the data set is T1, RH2, His-TF-RH2 (Medicago truncatula, UniProt A0A072TSA4 1-207).
T1 sequence: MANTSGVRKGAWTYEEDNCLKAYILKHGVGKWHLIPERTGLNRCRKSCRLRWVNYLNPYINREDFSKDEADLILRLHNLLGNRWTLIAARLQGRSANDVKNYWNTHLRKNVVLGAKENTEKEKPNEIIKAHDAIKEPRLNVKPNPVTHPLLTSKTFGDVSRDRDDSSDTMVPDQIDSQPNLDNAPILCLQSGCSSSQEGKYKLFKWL
Put plainly: EMSA.

B1: MtANS probe (dsDNA)
DNA 1: CTATATATAAGAAGCTAGCTGCATACAACCATTTATTCACGTTTTGTGCTGTGCAATCA
DNA 2: TGATTGCACAGCACAAAACGTGAATAAATGGTTGTATGCAGCTAGCTTCTTATATATAG
As to B1, the binding result is recorded as “binds”.

B2: MtCHS probe (dsDNA)
DNA 1: TCAGACTCACATTAAAACTACAGTCTGTTGAGTTGTGCTATTATATTAAGAGAGACAAT
DNA 2: ATTGTCTCTCTTAATATAATAGCACAACTCAACAGACTGTAGTTTTAATGTGAGTCTGA
In the case of B2, the binding result is recorded as “binds”.
